Ends that are not written are not given here.
What was measured:
[1] = Stability of cysteine and cystine-containing peptides in 20% v/v DMSO in WFI (UPLC-UV-MS purity); type: physicochemical; conditions: room temperature
Protocol: To examine the effect on stability of a peptide that contains cysteine(s) (non-oxidized, C) or cystine(s) (oxidized, C (C)) in a formulation matrix (20% v/v DMSO in WFI (water for injection), four non-oxidized (SEQ ID NO: 1, 2, 3 and 4) and their oxidized, cystine-containing, peptides were manufactured and individually examined in 20% v/v DMSO (aq.)
Each peptide (2.0 mg) was dissolved in 2.0 ml of 0.09% TFA in H2O: acetonitrile (1:1, v/v). Aliquots of 200 μL were transferred to a 1 mL amber vial and then freeze dried overnight. An aliquot (0.2 mg) was then redissolved in 20% v/v DMSO in WFI (1 mL). After swirling for 2 minutes, a sample was analyzed by UPLC-UV-MS. The remainder of the sample was stored at room temperature and analyzed at different time intervals (1 h, 2 h, 3 h, 4 h). The identity and purity of the purified peptides were then determined by UPLC-UV-MS on a Waters Acquity UPLC/TQD system using an C18 Waters Acquity BEH130 analytical column (1.7 μm particle size, 2.1×150 mm, flow 0.4 mL/min) with a linear gradient (5% B to 95% B, linear gradient in 10 min). The absorbance was measured at 220 nm.
MassLynx v4.1 was used to integrate the individual peaks of the chromatogram in the region of the observed peptide-derived signals. The following ApexTrack peak detection parameters were used for integration: peak-to-peak baseline noise was set at automatic, peak width at 5% height was set at automatic, baseline start threshold of 0.05% and baseline end threshold of 0.05%. The detect shoulder function was turned on. The following response thresholds were set: relative height of 0.20 and relative area of 0.10. After the peak of the desired peptide was identified by MS, the corresponding integral of the peak in the UV chromatogram is reported in Table 2 as percentage of the total integrated peaks, purity (% a/a).
Purity of the non-oxidized and oxidized peptide composition over time was evaluated over 4 h. Additional mass adducts, consistent with the formation of intermolecular or intramolecular disulfide bonds, increased over time in all spectra of cysteine-containing peptides compared to cystine-containing peptides. The purity of the non-oxidized peptides set forth in SEQ ID NO: 1, 3 and 4 declined from >90% a/a at to less than 80% a/a with the lowest stability observed for SEQ ID NO: 1 with a purity of 64% a/a after 4 h. For the cystine-containing peptide analogs, the purity remained >90% a/a after 4 h.

[2] = Stability of peptide mixtures under long term and accelerated storage (UPLC); type: physicochemical; conditions: peptide in mixture of 6 peptides
Protocol: To examine the effect on stability of peptides that contain cystine (oxidized, C (C)) present in a mixture of 6 peptides, two examples of mixtures of both non-cysteine-containing (NCC1-6) and cystine-containing (SEQ ID NO: 1-6) peptides were assessed. Typical chromatograms of the two mixtures are depicted in FIG. 2. Both mixtures were placed on two different storage conditions, ‘long term storage condition’ (i.e. −20±5° C.) and ‘accelerated storage condition’ (i.e. 5±3° C.).
The purity, the level of impurities, and the quantification per peptide of both mixtures are determined by reversed phase rapid UPLC using a mobile phase gradient of ACN/IPA and water with TFA, and UV detection at λ=220 nm. The method quantifies main peaks and impurities in mixtures of peptides. The reporting threshold for the method is 0.10% a/a.
Both mixtures of six peptides were stored under the two conditions described and by using the analytical method as described. The stability was monitored. The quantity of each of the peptides present in the mix (assay values), the purity, and the individual impurities were measured at several timepoints over a period of 3 months. […] Furthermore, focussing on the individual impurities it is shown that no significant degradation has taken place as all levels remain constant and no new impurities have formed.

Row | Sequence | Purity (% a/a) ([1]; Time 0 h) | Purity (% a/a) ([1]; Time 1 h) | Purity (% a/a) ([1]; Time 2 h) | Purity (% a/a) ([1]; Time 3 h) | Purity (% a/a) ([1]; Time 4 h) | Assay (net peptide content) (mg/vial) ([2]; Initial) | Assay (net peptide content) (mg/vial) ([2]; Storage at 5 ± 3° C., T1M) | Assay (net peptide content) (mg/vial) ([2]; Storage at 5 ± 3° C., T2M) | Assay (net peptide content) (mg/vial) ([2]; Storage at 5 ± 3° C., T3M) | Assay (net peptide content) (mg/vial) ([2]; Storage at −20 ± 5° C., T2M) | Assay (net peptide content) (mg/vial) ([2]; Storage at −20 ± 5° C., T3M)
1 | HLSLRGLPVCAFSSAGPCALRFTSA [Cystine(C(C)) containing SEQ ID NO: 1] | 97.14 % a/a | 96.67 % a/a | 95.10 % a/a | 95.97 % a/a | 95.74 % a/a | 0.24 mg/vial | 0.23 mg/vial | 0.24 mg/vial | 0.23 mg/vial | 0.24 mg/vial | 0.24 mg/vial
2 | VLSRKYTSFPWLLGCTANWILRGTSFVYVPSALNPA [Cystine(C(C)) containing SEQ ID NO: 3] (VLSRKYTSFPWLLGC(Cys)TANWILRGTSFVYVPSALNPA) [HBV Pol fragment SLP with cysteinylated cysteine] | 97.44 % a/a | 97.48 % a/a | 97.28 % a/a | 97.30 % a/a | 97.34 % a/a | 0.24 mg/vial | 0.23 mg/vial | 0.24 mg/vial | 0.25 mg/vial | 0.24 mg/vial | 0.25 mg/vial

Source: patent US20260200990A1, “MODIFIED LONG PEPTIDES SUITABLE FOR USE IN IMMUNISATION” (ISABELLA PHARMA B.V., priority 2022, published 2026)
